Results on 1 molecule are retold here after publication PMC6650482, “Tyrosine 51 residue of the syndecan-2 extracellular domain is involved in the interaction with and activation of pro-matrix metalloproteinase-7” (Scientific Reports, 2019).

The subject of assay [1] is MMP-7 in HT-29 cells. Put plainly: MMP-7 expression on IL-1α treatment. In kind it is cell-based, human. The note with it: 1 ng/ml IL-1α, syndecan-2- and Y51A-expressing HT-29 cells. Here is the method:
Figure 6 Tyrosine 51 of the syndecan-2 extracellular domain is involved in regulating pro-MMP-7 activation. (A) HT-29 cells were transiently transfected with 1 µg of vectors encoding SDC2 or the interaction-defective syndecan-2 mutant, Y51A, and the mRNA expression levels of SDC2 and MMP-7 were evaluated by RT-PCR (top). Conditioned media (CM) were collected and proteolytic activity was measured using quenched fluorescence peptide cleavage assay. The relative activity was normalized versus the fluorescence of a vector control (bottom). Data are shown as mean ± S.D. (n = 3), **p < 0.01 versus VEC or SDC2. (B) HT-29 cells were stably transfected with vectors encoding SDC2 or Y51A. The expression levels of the target mRNAs were analyzed by RT-PCR and quantitative real-time PCR (q-PCR) of three independent experiments was performed and normalized to GAPDH expression. Data are shown as mean ± S.D. (n = 3), *p < 0.05, **p < 0.01 versus VEC or SDC2 (left). […] CM were collected and proteolytic activity was measured using quenched fluorescence peptide cleavage assay (right bottom). […] The mRNA expression levels of SDC2 and MMP-7 were evaluated with RT-PCR (left top). CM were collected from the indicated cells and immunoblotted with an anti-MMP-7 antibody (left bottom) or subjected to quenched fluorescence peptide cleavage activity assay (right). […]

The test system of assay [2] is MMP-7 in HT-29 cells. As to conditions: cited from earlier work. The source says: Since syndecan-2 is known to mediate the activation of pro-MMP-7, we investigated how interrupting their interaction could affect syndecan-2-mediated MMP-7 activation. Firstly, we investigated whether the expression of syndecan-2 affects that of MMP-7.

B1: IL-1α: IL-1α was purchased from R&D Systems (protein, UniProt P01583 113-271, looked up)
Interleukin-1 alpha: SAPFSFLSNVKYNFMRIIKYEFILNDALNQSIIRANDQYLTAAALHNLDEAVKFDMGAYKSSKDDAKITVILRISKTQLYVTAQDEDQPVLLKEMPEIPKTITGSETNLLFFWETHGTKNYFTSVAHPNLFIATKQDYWVCLAGGPPSITDFQILENQA
B1: the MMP-7 expression entry in assay [1] is recorded as “upregulation of MMP-7”. Besides, in assay [2], the “MMP-7 expression in colon cancer cells” value was “known to induce MMP-7 expression”.
